Laboratory results: US9061070B2, “Treating stroke and other diseases without inhibiting N-type calcium channels” (NoNO, Inc., priority 2007, dated 2015)

Target: N-type calcium channels (Mus musculus, UniProt O55017)
Experiment: Whole-cell patch clamp recordings of calcium currents in dorsal root ganglion neurons
Assay type: cell-based, Swiss mice
Conditions: 100 μM; FIG. 5A

N-type calcium channels, sequence (O55017 whole entry): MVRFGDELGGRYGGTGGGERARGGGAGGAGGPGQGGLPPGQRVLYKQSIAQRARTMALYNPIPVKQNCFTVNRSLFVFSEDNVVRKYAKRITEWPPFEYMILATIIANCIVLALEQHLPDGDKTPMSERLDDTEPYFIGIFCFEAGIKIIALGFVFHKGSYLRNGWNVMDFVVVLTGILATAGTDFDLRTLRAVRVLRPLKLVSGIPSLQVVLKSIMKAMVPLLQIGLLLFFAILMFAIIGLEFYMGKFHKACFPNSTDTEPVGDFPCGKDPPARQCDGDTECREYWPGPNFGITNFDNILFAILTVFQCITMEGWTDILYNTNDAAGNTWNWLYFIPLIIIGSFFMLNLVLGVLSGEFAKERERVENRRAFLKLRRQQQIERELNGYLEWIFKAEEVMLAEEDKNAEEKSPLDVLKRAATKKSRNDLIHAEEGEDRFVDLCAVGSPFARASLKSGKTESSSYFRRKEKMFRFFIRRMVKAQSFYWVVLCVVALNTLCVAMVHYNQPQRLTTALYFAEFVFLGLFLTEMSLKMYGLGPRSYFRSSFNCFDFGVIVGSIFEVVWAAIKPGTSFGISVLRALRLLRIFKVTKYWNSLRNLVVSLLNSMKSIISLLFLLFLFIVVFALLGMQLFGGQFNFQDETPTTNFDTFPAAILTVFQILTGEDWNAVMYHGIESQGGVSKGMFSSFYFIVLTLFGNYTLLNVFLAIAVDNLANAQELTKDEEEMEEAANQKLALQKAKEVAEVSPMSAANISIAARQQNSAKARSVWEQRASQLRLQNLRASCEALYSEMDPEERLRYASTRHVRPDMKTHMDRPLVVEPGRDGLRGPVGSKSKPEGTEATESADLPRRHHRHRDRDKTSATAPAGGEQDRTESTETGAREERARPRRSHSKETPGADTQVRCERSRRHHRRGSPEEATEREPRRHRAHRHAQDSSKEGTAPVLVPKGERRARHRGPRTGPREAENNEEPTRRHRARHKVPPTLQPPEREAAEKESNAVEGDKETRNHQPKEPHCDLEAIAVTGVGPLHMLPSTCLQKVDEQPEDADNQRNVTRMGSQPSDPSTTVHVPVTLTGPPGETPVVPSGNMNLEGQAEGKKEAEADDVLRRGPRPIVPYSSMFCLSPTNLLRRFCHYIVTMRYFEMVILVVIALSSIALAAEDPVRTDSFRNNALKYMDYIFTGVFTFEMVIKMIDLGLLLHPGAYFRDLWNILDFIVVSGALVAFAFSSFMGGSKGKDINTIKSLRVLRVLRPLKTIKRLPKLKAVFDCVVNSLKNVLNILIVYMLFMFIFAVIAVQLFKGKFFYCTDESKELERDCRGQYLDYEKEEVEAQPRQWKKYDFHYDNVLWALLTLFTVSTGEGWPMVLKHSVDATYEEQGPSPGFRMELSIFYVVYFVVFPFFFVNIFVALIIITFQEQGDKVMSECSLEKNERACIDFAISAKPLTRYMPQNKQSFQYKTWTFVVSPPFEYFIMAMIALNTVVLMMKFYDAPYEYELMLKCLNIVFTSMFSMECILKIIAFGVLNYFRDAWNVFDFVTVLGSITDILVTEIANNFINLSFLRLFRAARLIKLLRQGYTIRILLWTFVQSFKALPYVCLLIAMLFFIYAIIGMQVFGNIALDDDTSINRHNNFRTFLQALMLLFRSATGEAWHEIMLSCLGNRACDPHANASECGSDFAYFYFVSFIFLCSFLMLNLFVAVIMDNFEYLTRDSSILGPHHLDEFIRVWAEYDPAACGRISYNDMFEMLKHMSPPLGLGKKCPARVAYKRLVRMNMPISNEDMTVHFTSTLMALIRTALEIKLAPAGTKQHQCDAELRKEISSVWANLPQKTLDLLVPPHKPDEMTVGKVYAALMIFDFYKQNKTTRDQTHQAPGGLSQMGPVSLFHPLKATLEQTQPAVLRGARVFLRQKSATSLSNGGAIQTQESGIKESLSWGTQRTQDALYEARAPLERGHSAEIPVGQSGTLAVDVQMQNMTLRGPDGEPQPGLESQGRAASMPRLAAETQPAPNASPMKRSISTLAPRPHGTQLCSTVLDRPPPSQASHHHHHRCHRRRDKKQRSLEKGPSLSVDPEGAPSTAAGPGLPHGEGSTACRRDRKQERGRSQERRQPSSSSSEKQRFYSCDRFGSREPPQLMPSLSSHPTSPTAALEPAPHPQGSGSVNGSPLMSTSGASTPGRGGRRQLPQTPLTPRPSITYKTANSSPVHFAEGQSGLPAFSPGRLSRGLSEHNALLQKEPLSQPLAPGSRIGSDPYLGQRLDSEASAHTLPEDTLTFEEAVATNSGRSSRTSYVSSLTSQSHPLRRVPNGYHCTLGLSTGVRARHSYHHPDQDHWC
N-type calcium channels, sequence (O08532 25-956 partner limits assumed): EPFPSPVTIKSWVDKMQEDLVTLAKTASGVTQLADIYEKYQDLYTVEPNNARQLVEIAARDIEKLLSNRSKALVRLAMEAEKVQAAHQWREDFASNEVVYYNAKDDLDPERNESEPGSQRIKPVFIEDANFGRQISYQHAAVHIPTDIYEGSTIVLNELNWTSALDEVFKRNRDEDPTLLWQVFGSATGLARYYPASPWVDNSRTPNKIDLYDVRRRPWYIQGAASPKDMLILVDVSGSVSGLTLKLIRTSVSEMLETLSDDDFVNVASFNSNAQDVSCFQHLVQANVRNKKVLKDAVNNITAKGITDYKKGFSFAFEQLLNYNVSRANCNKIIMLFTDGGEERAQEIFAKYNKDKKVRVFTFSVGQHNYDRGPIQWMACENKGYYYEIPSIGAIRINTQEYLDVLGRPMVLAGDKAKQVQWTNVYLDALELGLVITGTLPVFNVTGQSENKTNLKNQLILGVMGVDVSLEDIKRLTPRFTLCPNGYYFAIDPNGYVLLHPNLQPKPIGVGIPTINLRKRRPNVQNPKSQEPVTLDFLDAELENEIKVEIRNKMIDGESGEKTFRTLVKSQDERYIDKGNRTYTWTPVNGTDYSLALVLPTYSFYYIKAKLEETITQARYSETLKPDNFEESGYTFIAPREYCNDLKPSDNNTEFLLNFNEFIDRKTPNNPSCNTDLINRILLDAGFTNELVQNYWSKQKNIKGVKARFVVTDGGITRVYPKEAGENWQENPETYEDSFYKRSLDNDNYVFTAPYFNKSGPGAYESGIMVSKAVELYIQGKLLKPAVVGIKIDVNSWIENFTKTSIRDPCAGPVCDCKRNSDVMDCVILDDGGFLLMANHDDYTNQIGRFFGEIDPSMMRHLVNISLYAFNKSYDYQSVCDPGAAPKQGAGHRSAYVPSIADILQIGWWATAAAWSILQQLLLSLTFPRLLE
N-type calcium channels, sequence (O08532 957-1103 partner limits assumed): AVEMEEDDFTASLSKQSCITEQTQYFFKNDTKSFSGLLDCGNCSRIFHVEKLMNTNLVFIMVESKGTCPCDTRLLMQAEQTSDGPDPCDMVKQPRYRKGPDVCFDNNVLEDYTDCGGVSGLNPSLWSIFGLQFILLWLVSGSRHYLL
N-type calcium channels, sequence (P54285 whole entry partner): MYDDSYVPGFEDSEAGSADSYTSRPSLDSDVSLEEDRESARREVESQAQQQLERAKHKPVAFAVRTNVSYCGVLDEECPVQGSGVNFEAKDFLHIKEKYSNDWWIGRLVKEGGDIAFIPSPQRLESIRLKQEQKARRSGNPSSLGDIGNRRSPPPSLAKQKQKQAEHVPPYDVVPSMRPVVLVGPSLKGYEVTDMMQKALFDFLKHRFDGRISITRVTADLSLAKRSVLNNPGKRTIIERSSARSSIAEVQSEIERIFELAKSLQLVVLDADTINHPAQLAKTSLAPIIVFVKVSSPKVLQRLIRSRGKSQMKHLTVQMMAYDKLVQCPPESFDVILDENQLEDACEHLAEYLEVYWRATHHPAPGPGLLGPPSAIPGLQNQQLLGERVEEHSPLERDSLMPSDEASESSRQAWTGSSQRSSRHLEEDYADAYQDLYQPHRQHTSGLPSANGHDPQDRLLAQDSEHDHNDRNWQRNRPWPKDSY

YGRKKRRQRRRKLSSIESDV [Tat-NR2B9c, reference compound]
additional inhibition once N-channels are blocked by omega conotoxin (1 μM): no additional inhibition
